The results in this text go back to patent publication US20260234255A1 (Genmab, published 2026).

Test [1] addresses T1, cynomolgus monkey (Macaca fascicularis) CD30 (cynomolgus monkey, UniProt P28908 19-595 (human entry)).
T1 construct: also called mfCD30
T1 chain: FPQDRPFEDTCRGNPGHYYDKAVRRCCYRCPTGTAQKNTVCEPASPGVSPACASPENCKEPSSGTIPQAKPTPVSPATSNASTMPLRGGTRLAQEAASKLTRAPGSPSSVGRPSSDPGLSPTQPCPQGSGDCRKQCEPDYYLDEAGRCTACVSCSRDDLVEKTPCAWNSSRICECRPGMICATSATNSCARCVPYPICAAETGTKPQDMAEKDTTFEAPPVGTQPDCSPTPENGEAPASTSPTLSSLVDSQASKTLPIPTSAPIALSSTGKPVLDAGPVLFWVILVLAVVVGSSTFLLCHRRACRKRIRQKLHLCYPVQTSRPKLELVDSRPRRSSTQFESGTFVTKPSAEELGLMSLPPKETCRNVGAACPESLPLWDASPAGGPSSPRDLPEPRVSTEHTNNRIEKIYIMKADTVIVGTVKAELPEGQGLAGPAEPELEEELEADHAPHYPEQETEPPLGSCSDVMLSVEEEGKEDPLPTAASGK
Nature of the test: flow cytometry, Expi293F cells transfected with cynomolgus monkey CD30 (mfCD30). The method, then:
Cells (3×10⁴ cells/well) were incubated in polystyrene 96-well round-bottom plates (Greiner bio-one, cat. no. 650180) with serial dilutions of antibodies (ranging from 0.005 to 10 μg/mL in 3-fold dilution steps) in 100 μL staining buffer at 4° C. for 30 min. Experiments were performed in technical duplicate. After washing twice in staining buffer, cells were incubated in 50 μL secondary antibody at 4° C. for 30 min. As a secondary antibody, R-PE-conjugated goat-anti-human IgG (Jackson ImmunoResearch, UK; cat. no. 109⁻¹¹⁶-098) diluted 1:400 in staining buffer was used. Cells were washed twice in staining buffer, resuspended in 30 μL staining buffer containing 0.4% EDTA and analyzed on an iQue Screener (Intellicyt Corporation, USA). Binding curves were analyzed using non-linear regression (sigmoidal dose-response with variable slope) using GraphPad Prism V9.0.0 software (GraphPad Software, San Diego, CA, USA).
In general terms: A flow cytometer gives signals particle by particle.

The target of test [2] is T2, human CD30 (human, UniProt P28908 19-595).
T2 construct: also called huCD30; TNFRSF8
T2 sequence: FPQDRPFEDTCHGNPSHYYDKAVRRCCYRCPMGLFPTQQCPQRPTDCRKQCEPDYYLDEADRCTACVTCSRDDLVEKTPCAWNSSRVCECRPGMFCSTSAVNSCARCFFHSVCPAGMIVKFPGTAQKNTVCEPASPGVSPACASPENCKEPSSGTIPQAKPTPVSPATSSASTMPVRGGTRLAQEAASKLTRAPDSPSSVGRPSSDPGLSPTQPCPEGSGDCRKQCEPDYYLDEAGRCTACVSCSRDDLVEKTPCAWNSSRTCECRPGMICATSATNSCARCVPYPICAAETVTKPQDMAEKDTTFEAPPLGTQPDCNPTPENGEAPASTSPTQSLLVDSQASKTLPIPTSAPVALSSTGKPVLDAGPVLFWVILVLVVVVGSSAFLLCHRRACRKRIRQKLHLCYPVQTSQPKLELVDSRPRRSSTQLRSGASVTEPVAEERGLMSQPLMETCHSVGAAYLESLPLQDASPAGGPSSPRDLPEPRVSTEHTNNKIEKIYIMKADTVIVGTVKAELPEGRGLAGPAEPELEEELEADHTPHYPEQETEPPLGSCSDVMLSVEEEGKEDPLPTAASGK
As to the kind of experiment: flow cytometry, SU-DHL-1 cells. On the procedure: (§1) Binding of CD3×CD30 bispecific antibodies to two CD30-expressing human tumor cell lines SU-DHL-1 (ALCL; ATCC, cat. no. ACC 356) and HDLM-2 (HL; ATCC, cat. no. CRL-2965) was analyzed […] by flow cytometry.
(§2) Cells (3×10⁴ cells/well) were incubated in polystyrene 96-well round-bottom plates (Greiner bio-one, cat. no. 650180) with serial dilutions of antibodies (range 0.0046 to 10 μg/mL in 3-fold dilution steps) in 50 μL staining buffer at 4° C. for 30 min. After washing twice in staining buffer, cells were incubated with 50 μL secondary antibody at 4° C. for 30 min. […] Next, cells were washed twice in staining buffer, resuspended in 100 μL staining buffer supplemented with TO-PRO-3 iodide (Thermo Fisher Scientific; cat. no. T3605; 1:8000 dilution) and analyzed on a FACSCelesta flow cytometer (BD Biosciences, USA). Live cells were gated based on FSC/SSC and absence of TOPRO-3 staining. Binding curves were analyzed by non-linear regression of log-transformed data (sigmoidal dose-response with variable slope, four parameters) using GraphPad Prism V7.02 software (GraphPad Software, San Diego, CA, USA).

The target in test [3] is T2, human CD30. As to the kind of experiment: flow cytometry, DEL cells.
Test [4] addresses T2, human CD30. Nature of the test: flow cytometry, HDLM-2 cells. On the procedure: as §1, §2
Test [5] addresses T2, human CD30. As to the kind of experiment: flow cytometry, KI-JK cells.
The target in test [6] is T2, human CD30. Nature of the test: flow cytometry, HDLM-2 cells.
In test [7] the target is T2, human CD30. As to the kind of experiment: flow cytometry, L-1236 cells.
The target of test [8] is T2, human CD30. As to the kind of experiment: flow cytometry, NCEB-1 cells.
Test [9] has as its target T2, human CD30. Nature of the test: flow cytometry, SR-786 cells.
For test [10], the target named is T2, human CD30. As to the kind of experiment: flow cytometry, KM-H2 cells.
Test [11] has as its target T2, human CD30. Nature of the test: flow cytometry, L-82 cells.
For test [12], the target named is T2, human CD30. Nature of the test: flow cytometry, HH cells. On the procedure: as §2
Test [13] deals with T2, human CD30. Nature of the test: flow cytometry, SUP-M2 cells.
Test [14] addresses T2, human CD30. Nature of the test: flow cytometry, DL-40 cells.
The target of test [15] is T2, human CD30. As to the kind of experiment: flow cytometry, L-540 cells.
Test [16] addresses T1, cynomolgus monkey (Macaca fascicularis) …. As to the kind of experiment: flow cytometry, HEK293 cells transfected with mfCD30. On the procedure:
Cells (3×10⁴ cells/well) were incubated in polystyrene 96-well round-bottom plates (Thermo Scientific, cat. no. 163320) with serial dilutions of antibodies (ranging from 0.0002 to 50 μg/mL in 4-fold dilution steps) in 50 μL staining buffer at 4° C. for 30 min. Experiments were performed in technical duplicate. After washing twice in staining buffer, cells were incubated in 50 μL secondary antibody at 4° C. for 30 min. As a secondary antibody, R-PE-conjugated goat-anti-human IgG (Jackson ImmunoResearch, UK; cat. no. 109⁻¹¹⁶-098) diluted 1:200 in staining buffer was used. Cells were washed twice in staining buffer, resuspended in 30 μL staining buffer containing 0.4% EDTA and the ToPro-3 viability marker (Invitrogen, cat. no. T3605) diluted 1:10,000. Cells were analyzed on an iQue Screener (Intellicyt Corporation, USA). Binding curves were analyzed using non-linear regression (sigmoidal dose-response with variable slope) using GraphPad Prism V9.0.0 software (GraphPad Software, San Diego, CA, USA).

Substitutions are numbered along the chain they refer to.

B1: bsG1-b12-FEALxCD30-MDX060-FEAR (bispecific antibody, human IgG1, kappa)
heavy 1: QVQLVQSGAEVKKPGASVKVSCQASGYRFSNFVIHWVRQAPGQRFEWMGWINPYNGNKEFSAKFQDRVTFTADTSANTAYMELRSLRSADTAVYYCARVGPYSWDDSPQDNYYMDVWGKGTTVIVSSASTKGPSVFPLAPSSKSTSGGTAALGCLVKDYFPEPVTVSWNSGALTSGVHTFPAVLQSSGLYSLSSVVTVPSSSLGTQTYICNVNHKPSNTKVDKRVEPKSCDKTHTCPPCPAPEFEGGPSVFLFPPKPKDTLMISRTPEVTCVVVAVSHEDPEVKFNWYVDGVEVHNAKTKPREEQYNSTYRVVSVLTVLHQDWLNGKEYKCKVSNKALPAPIEKTISKAKGQPREPQVYTLPPSREEMTKNQVSLTCLVKGFYPSDIAVEWESNGQPENNYKTTPPVLDSDGSFLLYSKLTVDKSRWQQGNVFSCSVMHEALHNHYTQKSLSLSPG
light 1: EIVLTQSPGTLSLSPGERATFSCRSSHSIRSRRVAWYQHKPGQAPRLVIHGVSNRASGISDRFSGSGSGTDFTLTITRVEPEDFALYYCQVYGASSYTFGQGTKLERKRTVAAPSVFIFPPSDEQLKSGTASVVCLLNNFYPREAKVQWKVDNALQSGNSQESVTEQDSKDSTYSLSSTLTLSKADYEKHKVYACEVTHQGLSSPVTKSFNRGEC
heavy 2: QVQLQQWGAGLLKPSETLSLTCAVYGGSFSAYYWSWIRQPPGKGLEWIGDINHGGGTNYNPSLKSRVTISVDTSKNQFSLKLNSVTAADTAVYYCASLTAYWGQGSLVTVSSASTKGPSVFPLAPSSKSTSGGTAALGCLVKDYFPEPVTVSWNSGALTSGVHTFPAVLQSSGLYSLSSVVTVPSSSLGTQTYICNVNHKPSNTKVDKRVEPKSCDKTHTCPPCPAPEFEGGPSVFLFPPKPKDTLMISRTPEVTCVVVAVSHEDPEVKFNWYVDGVEVHNAKTKPREEQYNSTYRVVSVLTVLHQDWLNGKEYKCKVSNKALPAPIEKTISKAKGQPREPQVYTLPPSREEMTKNQVSLTCLVKGFYPSDIAVEWESNGQPENNYKTTPPVLDSDGSFFLYSRLTVDKSRWQQGNVFSCSVMHEALHNHYTQKSLSLSPG
light 2: DIQMTQSPTSLSASVGDRVTITCRASQGISSWLTWYQQKPEKAPKSLIYAASSLQSGVPSRFSGSGSGTDFTLTISSLQPEDFATYYCQQYDSYPITFGQGTRLEIKRTVAAPSVFIFPPSDEQLKSGTASVVCLLNNFYPREAKVQWKVDNALQSGNSQESVTEQDSKDSTYSLSSTLTLSKADYEKHKVYACEVTHQGLSSPVTKSFNRGEC
notes: Monovalent CD30 control
Regarding B1, the binding result in test [1] is given as “binds”. Also, the half-maximal effective concentration (EC50 (read off the curve)) (commonly the concentration giving half of the maximal effect) in test [2] was roughly 0.4 µg/mL; in test [3], roughly 0.2 µg/mL; in [4], roughly 0.3 µg/mL; in test [5], roughly 0.2 µg/mL; in test [6], roughly 0.1 µg/mL.

B2: IgG1-CD30-MDX060-FERR (antibody)
heavy: B1 heavy 2 with G231R, A260D
light: B1 light 2
notes: Monospecific, bivalent parental antibody; also called IgG1-huCD30-MDX060-FERR
As to B2, the half-maximal effective concentration (EC50 (read off the curve)) was roughly 0.04 µg/mL in test [7]; roughly 0.04 µg/mL in test [8]; roughly 0.1 µg/mL in [9]; roughly 0.04 µg/mL in test [10]; roughly 0.07 µg/mL in test [11]; roughly 0.1 µg/mL in test [12]. For the same molecule, the “EC50 (read off the curve)” value is roughly 0.03 µg/mL in [13]; roughly 0.1 µg/mL in test [3]; roughly 0.07 µg/mL in test [14]; roughly 0.3 µg/mL in [15]; roughly 0.06 µg/mL in test [5]; roughly 0.06 µg/mL in test [6].

B3: bsG1-huCD3-FEALxb12-FERR (bispecific antibody, human IgG1, kappa, lambda)
heavy 1: not shown
light 1: not shown
heavy 2: B1 heavy 1 with G246R, A275D, L415F, K419R
light 2: B1 light 1
notes: Monovalent CD3 control antibody
In the case of B3, the binding result in test [16] is given as “no binding (tested: 0.0002 to 50 µg/mL)”.
